Experimental data published in the supplement of paper PMC10567573.

B1: ANKRD17 (parent)
chain: EMVRFLLEAGADQEHKTDEMHTAL

Variants of: B1
Assay: protein stability index of a GFP-peptide fusion (GPS, HEK-293T) (PSI 1-6); higher = more stable
Settings: c terminus: a fixed tail appended
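Also: lentivirally expressed fusions sorted by FACS into six bins by GFP to DsRed ratio, PSI derived from sequencing read proportions per bin multiplied by bin number.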

Row | Variant | protein stability index
1 | EMVRFLLEAGADQELKTDEMHTAL | 2.71
2 | EMVRFLLEAGADQEPKTDEMHTAL | 2.33
3 | EMVRFLLEAGADQEGKTDEMHTAL | 2.73
4 | EMVRFYLEAGADQEHKTDEMHTAL | 3.81
5 | EMVRFCLEAGADQEHKTDEMHTAL | 4.22
6 | EMVRFELEAGADQEHKTDEMHTAL | 5.28
7 | EMVRFLLEAGADQEHKTDEMTTAL | 2.81
8 | EMVRFLLEAGADQEHKTDEMKTAL | 3.11
9 | EMVRFLLEAGADQEHKTDEMYTAL | 2.41
10 | EMVRFLLEAGADQEHKTDEMWTAL | 1.92
11 | EMVRFLLEAGADQEHKTDEMDTAL | 2.96
12 | EMVRFLLEFGADQEHKTDEMHTAL | 2.32
13 | EMVRFLLEYGADQEHKTDEMHTAL | 2.54
14 | EMVRFLLEEGADQEHKTDEMHTAL | 3.44
15 | EMTRFLLEAGADQEHKTDEMHTAL | 4.51
16 | EMDRFLLEAGADQEHKTDEMHTAL | 5.21
17 | EMYRFLLEAGADQEHKTDEMHTAL | 3.02
18 | EMVRHLLEAGADQEHKTDEMHTAL | 3.48
19 | EMVRELLEAGADQEHKTDEMHTAL | 4.71
20 | EMVRFLLEAHADQEHKTDEMHTAL | 2.57
21 | EMVRFLLEAQADQEHKTDEMHTAL | 2.57
22 | EMVRFLLEATADQEHKTDEMHTAL | 2.27
23 | EMVRFLLEAAADQEHKTDEMHTAL | 2.76
24 | EMVRFLLEAWADQEHKTDEMHTAL | 2.2

Row | Variant | protein stability index
25 | EMVRFLLEALADQEHKTDEMHTAL | 1.95
26 | EMVRFLLEAGADQEHKTDEMHTAF | 2.34
27 | EMVRFLLEAGADQEHKTDEMHTAS | 2.99
28 | EMVRFLLEAGADQEHKTDEMHTAC | 2.75
29 | YMVRFLLEAGADQEHKTDEMHTAL | 2.54
30 | TMVRFLLEAGADQEHKTDEMHTAL | 2.73
31 | MMVRFLLEAGADQEHKTDEMHTAL | 1.97
32 | EMVRFLLEAGADQEHKLDEMHTAL | 2.22
33 | EMVRFLLEAGADQEHKWDEMHTAL | 2.19
34 | EMVRFLLEAGADQEHKSDEMHTAL | 2.76
35 | EMVRFLLEAGADQEHKDDEMHTAL | 3.12
36 | EMVRFLLEAGADQEHKNDEMHTAL | 2.21
37 | EMVRFLLEAGADQEHKIDEMHTAL | 2.16
38 | EMVRFLLEAGADQEHKVDEMHTAL | 2.37
39 | EMVRFLLEAGIDQEHKTDEMHTAL | 2.29
40 | EMVRFLLEAGWDQEHKTDEMHTAL | 2.22
41 | EMVRFLLEAGCDQEHKTDEMHTAL | 2.57
42 | EMVRFLLEAGEDQEHKTDEMHTAL | 2.68
43 | EMVRFLLEAGADQEHKTDEMHTWL | 3.12
44 | EMVRFLLEAGADQEHKTDEMHTFL | 2.18
45 | EMVRFLLEAGADQEHKTDEMHTNL | 3.01
46 | EMVRFLLEAGADQEHKTDEMHTTL | 2.74
47 | EMVRFLLEAGADQEHKTPEMHTAL | 2.35
48 | EMVRFLLEAGADQEHKTIEMHTAL | 2.64

Row | Variant | protein stability index
49 | EMVRFLLEAGADQEHKTEEMHTAL | 3.16
50 | EMVRFLLEAGADQEHKTTEMHTAL | 2.42
51 | EMVRFLLEAGADQEHKTFEMHTAL | 1.34
52 | EMVRFLLEAGAEQEHKTDEMHTAL | 2.76
53 | EMVRFLLEAGAFQEHKTDEMHTAL | 1.66
54 | EMVRFLLEAGACQEHKTDEMHTAL | 1.44
55 | EMVRFLLEAGAPQEHKTDEMHTAL | 2.25
56 | EMVRFLLEAGARQEHKTDEMHTAL | 2.05
57 | EMVRFLLEAGADQEHKTDSMHTAL | 2.16
58 | EMVRFLLEAGADQEHKTDPMHTAL | 1.87
59 | EMVRFLLEAGADQEHKTDIMHTAL | 1.63
60 | EMVRFLLEAGADQEHKTDAMHTAL | 2.33
61 | EMVRFLLEAGADQEHKTDCMHTAL | 1.54
62 | EMVRFLLEAGADQEHTTDEMHTAL | 3.44
63 | EMVRFLLEAGADQEHPTDEMHTAL | 2.45
64 | EMVRFLLEAGADQEHHTDEMHTAL | 2.87
65 | EPVRFLLEAGADQEHKTDEMHTAL | 4.75
66 | ENVRFLLEAGADQEHKTDEMHTAL | 5.32
67 | EAVRFLLEAGADQEHKTDEMHTAL | 3.71
68 | EMVRFLLEAGADQEHKTDEMHKAL | 2.51
69 | EMVRFLLEAGADQEHKTDEMHDAL | 2.75
70 | EMVRFLLEAGADQEHKTDEMHQAL | 2.78
71 | EMVRFLLEAGADQEHKTDEMHYAL | 1.93
72 | EMVNFLLEAGADQEHKTDEMHTAL | 3.22

Row | Variant | protein stability index
73 | EMVQFLLEAGADQEHKTDEMHTAL | 3.61
74 | EMVFFLLEAGADQEHKTDEMHTAL | 2.77
75 | EMVCFLLEAGADQEHKTDEMHTAL | 3.14
76 | EMVRFLLEAGADQPHKTDEMHTAL | 1.9
77 | EMVRFLLEAGADQKHKTDEMHTAL | 2.76
78 | EMVRFLLEAGADQEHKTDEHHTAL | 2.79
79 | EMVRFLAEAGADQEHKTDEMHTAL | 4.08
80 | EMVRFLQEAGADQEHKTDEMHTAL | 4.04
81 | EMVRFLMEAGADQEHKTDEMHTAL | 3.4
82 | EMVRFLPEAGADQEHKTDEMHTAL | 4.99
83 | EMVRFLFEAGADQEHKTDEMHTAL | 3.31
84 | EMVRFLHEAGADQEHKTDEMHTAL | 4.27
85 | EMVRFLYEAGADQEHKTDEMHTAL | 3.17
86 | EMVRFLEEAGADQEHKTDEMHTAL | 4.79
87 | EMVRFLLPAGADQEHKTDEMHTAL | 3.11
88 | EMVRFLLNAGADQEHKTDEMHTAL | 2.48
89 | EMVRFLLKAGADQEHKTDEMHTAL | 2.71
90 | EMVRFLLQAGADQEHKTDEMHTAL | 2.67
91 | EMVRFLLCAGADQEHKTDEMHTAL | 2.14
92 | EMVRFLLEAGADFEHKTDEMHTAL | 2.11
93 | EMVRFLLEAGADIEHKTDEMHTAL | 2.36
94 | EMVRFLLEAGADYEHKTDEMHTAL | 1.87
